Measurements published in US20210309722A1 (DUKE UNIVERSITY, published 2021).

B1: GLP1-ELP20%Ala,120 (other)
chain: HGEGTFTSDVSSYLEEQAAKEFIAWLVKGAGVGVPGVGVPGAGVPGVGVPGVGVPGVGVPGVGVPGAGVPGVGVPGVGVPGVGVPGVGVPGAGVPGVGVPGVGVPGVGVPGVGVPGAGVPGVGVPGVGVPGVGVPGVGVPGAGVPGVGVPGVGVPGVGVPGVGVPGAGVPGVGVPGVGVPGVGVPGVGVPGAGVPGVGVPGVGVPGVGVPGVGVPGAGVPGVGVPGVGVPGVGVPGVGVPGAGVPGVGVPGVGVPGVGVPGVGVPGAGVPGVGVPGVGVPGVGVPGVGVPGAGVPGVGVPGVGVPGVGVPGVGVPGAGVPGVGVPGVGVPGVGVPGVGVPGAGVPGVGVPGVGVPGVGVPGVGVPGAGVPGVGVPGVGVPGVGVPGVGVPGAGVPGVGVPGVGVPGVGVPGVGVPGAGVPGVGVPGVGVPGVGVPGVGVPGAGVPGVGVPGVGVPGVGVPGVGVPGAGVPGVGVPGVGVPGVGVPGVGVPGAGVPGVGVPGVGVPGVGVPGVGVPGAGVPGVGVPGVGVPGVGVPGVGVPGAGVPGVGVPGVGVPGVGVPGVGVPGAGVPGVGVPGVGVPGVGVPGVGVPGAGVPGVGVPGVGVPGVGVPGVGVPGAGVPGVGVPGVGVPG
B2: GLP1-ELP20%Ala,120-FGF21 (other)
chain: AAHGEGTFTSDVSSYLEEQAAKEFIAWLVKGAGVGVPGVGVPGAGVPGVGVPGVGVPGVGVPGVGVPGAGVPGVGVPGVGVPGVGVPGVGVPGAGVPGVGVPGVGVPGVGVPGVGVPGAGVPGVGVPGVGVPGVGVPGVGVPGAGVPGVGVPGVGVPGVGVPGVGVPGAGVPGVGVPGVGVPGVGVPGVGVPGAGVPGVGVPGVGVPGVGVPGVGVPGAGVPGVGVPGVGVPGVGVPGVGVPGAGVPGVGVPGVGVPGVGVPGVGVPGAGVPGVGVPGVGVPGVGVPGVGVPGAGVPGVGVPGVGVPGVGVPGVGVPGAGVPGVGVPGVGVPGVGVPGVGVPGAGVPGVGVPGVGVPGVGVPGVGVPGAGVPGVGVPGVGVPGVGVPGVGVPGAGVPGVGVPGVGVPGVGVPGVGVPGAGVPGVGVPGVGVPGVGVPGVGVPGAGVPGVGVPGVGVPGVGVPGVGVPGAGVPGVGVPGVGVPGVGVPGVGVPGAGVPGVGVPGVGVPGVGVPGVGVPGAGVPGVGVPGVGVPGVGVPGVGVPGAGVPGVGVPGVGVPGVGVPGVGVPGAGVPGVGVPGVGVPGVGVPGVGVPGAGVPGVGVPGVGVPGVGVPGVGVPGAGVPGVGVPGVGVPGAYPIPDSSPLLQFGGQVRQRYLYTDDDQDTEAHLEIREDGTVVGAAHRSPESLLELKALKPGVIQILGVKASRFLCQQPDGALYGSPHFDPEACSFRERLLEDGYNVYQSEAHGLPLRLPQKDSPNQDATSWGPVRFLPMPGLLHEPQDQAGFLPPEPPDVGSSDPLSMVEGSQGRSPSYASG
B3: ELP20%Ala,120-FGF21 (other)
chain: GVGVPGVGVPGAGVPGVGVPGVGVPGVGVPGVGVPGAGVPGVGVPGVGVPGVGVPGVGVPGAGVPGVGVPGVGVPGVGVPGVGVPGAGVPGVGVPGVGVPGVGVPGVGVPGAGVPGVGVPGVGVPGVGVPGVGVPGAGVPGVGVPGVGVPGVGVPGVGVPGAGVPGVGVPGVGVPGVGVPGVGVPGAGVPGVGVPGVGVPGVGVPGVGVPGAGVPGVGVPGVGVPGVGVPGVGVPGAGVPGVGVPGVGVPGVGVPGVGVPGAGVPGVGVPGVGVPGVGVPGVGVPGAGVPGVGVPGVGVPGVGVPGVGVPGAGVPGVGVPGVGVPGVGVPGVGVPGAGVPGVGVPGVGVPGVGVPGVGVPGAGVPGVGVPGVGVPGVGVPGVGVPGAGVPGVGVPGVGVPGVGVPGVGVPGAGVPGVGVPGVGVPGVGVPGVGVPGAGVPGVGVPGVGVPGVGVPGVGVPGAGVPGVGVPGVGVPGVGVPGVGVPGAGVPGVGVPGVGVPGVGVPGVGVPGAGVPGVGVPGVGVPGVGVPGVGVPGAGVPGVGVPGVGVPGVGVPGVGVPGAGVPGVGVPGVGVPGVGVPGVGVPGAGVPGVGVPGVGVPGAYPIPDSSPLLQFGGQVRQRYLYTDDDQDTEAHLEIREDGTVVGAAHRSPESLLELKALKPGVIQILGVKASRFLCQQPDGALYGSPHFDPEACSFRERLLEDGYNVYQSEAHGLPLRLPQKDSPNQDATSWGPVRFLPMPGLLHEPQDQAGFLPPEPPDVGSSDPLSMVEGSQGRSPSYASG
B4: GLP1-ELP-FGF21 (after removal of the expression-enhancing sequence) (other)
chain: MSKGPGENLYFQGAHGEGTFTSDVSSYLEEQAAKEFIAWLVKGAGVGVPGVGVPGAGVPGVGVPGVGVPGVGVPGVGVPGAGVPGVGVPGVGVPGVGVPGVGVPGAGVPGVGVPGVGVPGVGVPGVGVPGAGVPGVGVPGVGVPGVGVPGVGVPGAGVPGVGVPGVGVPGVGVPGVGVPGAGVPGVGVPGVGVPGVGVPGVGVPGAGVPGVGVPGVGVPGVGVPGVGVPGAGVPGVGVPGVGVPGVGVPGVGVPGAGVPGVGVPGVGVPGVGVPGVGVPGAGVPGVGVPGVGVPGVGVPGVGVPGAGVPGVGVPGVGVPGVGVPGVGVPGAGVPGVGVPGVGVPGVGVPGVGVPGAGVPGVGVPGVGVPGVGVPGVGVPGAGVPGVGVPGVGVPGVGVPGVGVPGAGVPGVGVPGVGVPGVGVPGVGVPGAGVPGVGVPGVGVPGVGVPGVGVPGAGVPGVGVPGVGVPGVGVPGVGVPGAGVPGVGVPGVGVPGVGVPGVGVPGAGVPGVGVPGVGVPGVGVPGVGVPGAGVPGVGVPGVGVPGVGVPGVGVPGAGVPGVGVPGVGVPGVGVPGVGVPGAGVPGVGVPGVGVPGVGVPGVGVPGAGVPGVGVPGVGVPGVGVPGVGVPGAGVPGVGVPGVGVPGAYPIPDSSPLLQFGGQVRQRYLYTDDDQDTEAHLEIREDGTVVGAAHRSPESLLELKALKPGVIQILGVKASRFLCQQPDGALYGSPHFDPEACSFRERLLEDGYNVYQSEAHGLPLRLPQKDSPNQDATSWGPVRFLPMPGLLHEPQDQAGFLPPEPPDVGSSDPLSMVEGSQGRSPSYASG
B5: GLP1-ELP20%Ala,120-FGF21 (no AA leader) (other)
chain: HGEGTFTSDVSSYLEEQAAKEFIAWLVKGAGVGVPGVGVPGAGVPGVGVPGVGVPGVGVPGVGVPGAGVPGVGVPGVGVPGVGVPGVGVPGAGVPGVGVPGVGVPGVGVPGVGVPGAGVPGVGVPGVGVPGVGVPGVGVPGAGVPGVGVPGVGVPGVGVPGVGVPGAGVPGVGVPGVGVPGVGVPGVGVPGAGVPGVGVPGVGVPGVGVPGVGVPGAGVPGVGVPGVGVPGVGVPGVGVPGAGVPGVGVPGVGVPGVGVPGVGVPGAGVPGVGVPGVGVPGVGVPGVGVPGAGVPGVGVPGVGVPGVGVPGVGVPGAGVPGVGVPGVGVPGVGVPGVGVPGAGVPGVGVPGVGVPGVGVPGVGVPGAGVPGVGVPGVGVPGVGVPGVGVPGAGVPGVGVPGVGVPGVGVPGVGVPGAGVPGVGVPGVGVPGVGVPGVGVPGAGVPGVGVPGVGVPGVGVPGVGVPGAGVPGVGVPGVGVPGVGVPGVGVPGAGVPGVGVPGVGVPGVGVPGVGVPGAGVPGVGVPGVGVPGVGVPGVGVPGAGVPGVGVPGVGVPGVGVPGVGVPGAGVPGVGVPGVGVPGVGVPGVGVPGAGVPGVGVPGVGVPGVGVPGVGVPGAGVPGVGVPGVGVPGAYPIPDSSPLLQFGGQVRQRYLYTDDDQDTEAHLEIREDGTVVGAAHRSPESLLELKALKPGVIQILGVKASRFLCQQPDGALYGSPHFDPEACSFRERLLEDGYNVYQSEAHGLPLRLPQKDSPNQDATSWGPVRFLPMPGLLHEPQDQAGFLPPEPPDVGSSDPLSMVEGSQGRSPSYASG

Key:
[1] = biological target: GLP-1 receptor; assay: cell-based or functional assay
[2] = biological target: FGF21 receptor complex (murine β-Klotho and FGF receptor 1) (murine, UniProt Q99N32 1-1043; P16092 22-822); assay: cell-based or functional assay
FGF21 receptor complex (murine β-Klotho and FGF receptor 1), sequence (Q99N32 whole entry, chain 1 of 2): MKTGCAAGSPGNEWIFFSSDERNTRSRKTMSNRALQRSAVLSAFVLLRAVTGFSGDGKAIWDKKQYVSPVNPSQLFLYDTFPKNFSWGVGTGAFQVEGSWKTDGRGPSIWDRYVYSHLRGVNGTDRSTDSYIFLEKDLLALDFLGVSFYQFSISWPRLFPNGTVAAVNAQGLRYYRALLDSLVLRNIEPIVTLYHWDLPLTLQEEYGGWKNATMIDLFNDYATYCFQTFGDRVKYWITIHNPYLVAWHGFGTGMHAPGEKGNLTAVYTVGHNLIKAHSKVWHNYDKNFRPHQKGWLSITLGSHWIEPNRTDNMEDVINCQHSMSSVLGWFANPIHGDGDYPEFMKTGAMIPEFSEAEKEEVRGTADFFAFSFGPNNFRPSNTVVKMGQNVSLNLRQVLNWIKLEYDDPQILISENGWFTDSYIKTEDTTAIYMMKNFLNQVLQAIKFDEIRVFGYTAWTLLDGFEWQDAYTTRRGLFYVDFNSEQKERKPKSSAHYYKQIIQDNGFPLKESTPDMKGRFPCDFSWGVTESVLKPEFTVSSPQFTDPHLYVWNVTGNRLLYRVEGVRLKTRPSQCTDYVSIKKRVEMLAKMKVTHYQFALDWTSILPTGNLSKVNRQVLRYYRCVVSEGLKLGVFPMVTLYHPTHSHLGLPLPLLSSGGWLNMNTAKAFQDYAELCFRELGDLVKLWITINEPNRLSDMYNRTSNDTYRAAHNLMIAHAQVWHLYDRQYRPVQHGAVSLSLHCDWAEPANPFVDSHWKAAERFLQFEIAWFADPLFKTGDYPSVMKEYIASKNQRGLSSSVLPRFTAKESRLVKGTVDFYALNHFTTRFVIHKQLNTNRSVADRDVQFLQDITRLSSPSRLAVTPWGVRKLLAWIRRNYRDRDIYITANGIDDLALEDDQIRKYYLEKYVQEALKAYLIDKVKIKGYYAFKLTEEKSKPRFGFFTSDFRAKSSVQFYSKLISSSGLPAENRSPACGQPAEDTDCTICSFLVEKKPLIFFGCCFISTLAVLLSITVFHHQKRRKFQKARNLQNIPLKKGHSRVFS
FGF21 receptor complex (murine β-Klotho and FGF receptor 1), sequence (P16092 22-822, chain 2 of 2): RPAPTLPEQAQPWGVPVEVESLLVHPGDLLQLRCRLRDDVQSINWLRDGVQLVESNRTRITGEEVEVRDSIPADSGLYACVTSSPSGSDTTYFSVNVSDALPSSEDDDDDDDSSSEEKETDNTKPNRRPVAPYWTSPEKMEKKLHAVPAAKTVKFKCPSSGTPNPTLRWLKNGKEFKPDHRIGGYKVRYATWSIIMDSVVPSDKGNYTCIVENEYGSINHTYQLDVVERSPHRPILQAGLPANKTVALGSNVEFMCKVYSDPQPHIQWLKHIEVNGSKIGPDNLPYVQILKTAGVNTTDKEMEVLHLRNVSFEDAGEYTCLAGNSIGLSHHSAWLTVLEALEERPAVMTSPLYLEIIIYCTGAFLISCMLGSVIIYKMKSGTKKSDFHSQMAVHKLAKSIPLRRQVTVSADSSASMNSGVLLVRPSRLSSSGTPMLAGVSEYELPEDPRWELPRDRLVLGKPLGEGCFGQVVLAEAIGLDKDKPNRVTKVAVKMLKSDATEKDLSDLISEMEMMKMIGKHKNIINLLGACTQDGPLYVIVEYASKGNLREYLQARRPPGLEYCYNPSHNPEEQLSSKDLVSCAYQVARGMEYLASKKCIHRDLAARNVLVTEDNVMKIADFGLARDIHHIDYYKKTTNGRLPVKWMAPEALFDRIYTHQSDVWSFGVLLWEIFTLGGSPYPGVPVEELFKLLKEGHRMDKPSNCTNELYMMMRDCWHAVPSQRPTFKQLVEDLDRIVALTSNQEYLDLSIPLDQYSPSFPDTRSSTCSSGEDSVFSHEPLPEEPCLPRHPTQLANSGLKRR

GLP-1R EC50, cAMP production (cAMP-inducible luciferase reporter) in HEK293 cells expressing GLP-1R [1] | fold increase of EC50 against native GLP1, cAMP production assay [1] | FGF21 receptor EC50, ERK1/2 phosphorylation (phospho-ERK1/2 normalized to total ERK1/2) in HEK293 cells expressing FGFR1 and β-Klotho [2] | further results | Binder
0.0295 nM | ~10 fold | – | fold increase of EC50 against native GLP-1, cAMP production assay [1]: 10 fold; fold increase of GLP-1R EC50 against native GLP-1, cAMP production assay [1]: ~10 fold | B1
– | – | 43.2 nM | – | B2
– | – | 18.8 nM | fold increase of FGF21 receptor EC50 against native mouse FGF21, ERK1/2 phosphorylation assay [2]: ~20 fold | B3
– | – | – | EC50, cAMP production (cAMP-inducible luciferase reporter) in HEK293 cells expressing GLP1R [1]: 0.212 nM | B4
0.0239 nM | ~10 fold | – | – | B5
